Drawing on the RNAGym collection of RNA variant scans (doi:10.7554/elife.80360), this text covers self-cleavage for 167 variants.

The chains are these.
B1: HDV Ribozyme (parent)
chain: GGCCGGCAUGGUCCCAGCCUCCUCGCUGGCGCCGGCUGGGCAACAUUCCGAGGGGACCGUCCCCUCGGUAAUGGCGAAUGGGACCCA

The series covers variants of B1. The experiment in a line: self-cleavage, relative activity (ratio to wild type); higher = more cleavage; co-transcriptional.
As to U27G A56G, the self-cleavage came to 1.06.
As for U27C G35A, the self-cleavage was 0.389.
For C26U U37C, the self-cleavage amounted to 1.34.
Consider C26U U37G, for which the self-cleavage turned out to be 0.346.
As to G25U G50C, the self-cleavage was determined as 0.136.
For G25U G50A, the self-cleavage was 0.151.
On to C26G C85G, for which the self-cleavage was determined as 0.965.
Consider C26G C85A, for which the self-cleavage was found to be 1.06.
Turning to U27C G81U, the self-cleavage came to 0.475.
For the variant U27C G81A, the self-cleavage worked out at 0.374.
Regarding U27G C63G, the self-cleavage is 0.532.
As to G25U C48U, the self-cleavage was determined as 0.102.
In the case of C26A G40A, the self-cleavage is 1.01.
Turning to G25U C86U, the self-cleavage worked out at 0.108.
Turning to G25U C86G, the self-cleavage stood at 0.256.
For G25U C86A, the self-cleavage was 0.102.
With G25A U79C the figure was 0.0583.
For U27C U46A, the self-cleavage worked out at 0.529.
Take G25U A45U: the self-cleavage was found to be 0.172.
Take G25C G50A: the self-cleavage is 0.0354.
Then G25C G50U, with 0.0811; and C26A G28U, with 0.222; and C26A G28C, with 0.0791.
With C26G C64G the figure was 0.787.
On to C26A C48G, for which the self-cleavage was found to be 1.07.
With C26A C48A, the self-cleavage is 0.941.
With G25C C36G the figure was 0.0519; with G25C C36A, 0.128.
Then G25U A87U, with 0.109; and G25U A87C, with 0.0755; and G25U G35C, with 0.0707.
Regarding G25C G80A, the self-cleavage is 0.0744.
Take G25C G54C: the self-cleavage was 0.138.
Take U27G A45G: the self-cleavage was 0.712.
Regarding G25C C57A, the self-cleavage came to 0.166.
Consider G25C C63G, for which the self-cleavage came out at 0.0875.
With G25U G67A the figure was 0.227.
For G25C G74U, the self-cleavage came out at 0.108.
For G25C G73A, the self-cleavage turned out to be 0.116.
Regarding U27G A42C, the self-cleavage came out at 0.185.
U27G A42U: the self-cleavage was 0.229.
Regarding U27G C33G, the self-cleavage was determined as 0.104.
For the variant U27C A45U, the self-cleavage is 0.532.
Then C26G G53C, with 0.73; and G25C G55A, with 0.158; and C26G A77C, with 0.383.
For the variant U27C G52C, the self-cleavage was 0.764.
Consider G25C G38C, for which the self-cleavage is 0.119.
With G25C G38U, the self-cleavage is 0.0791.
Then U27G A70U, with 0.519; and U27A G73U, with 0.261; and C26U G35A, with 0.876.
With U27A C49U the figure was 0.88; with U27C C61U, 0.978; with U27C C61A, 0.898.
Take C26U C41G: the self-cleavage is 1.02.
With C26U C36U, the self-cleavage worked out at 0.975.
With U27C G50A the figure was 0.733; with U27C G50U, 0.628; with C26U C66A, 1.09.
Consider U27A A71U, for which the self-cleavage was 0.906.
Consider C26A G73C, for which the self-cleavage is 0.522.
In the case of C26A G73A, the self-cleavage came out at 0.89.
As for G25C U60G, the self-cleavage stood at 0.101.
Then C26U G76C, with 0.87.
Take C26A C62G: the self-cleavage came to 0.63.
Regarding U27A A45C, the self-cleavage amounted to 0.256.
With U27G C30U the figure was 0.554.
Regarding U27G C30G, the self-cleavage came to 0.277.
With U27A C85A, the self-cleavage worked out at 0.957.
For the variant U27A C85U, the self-cleavage worked out at 0.684.
G25U U72A: the self-cleavage came to 0.0707.
For the variant G25C C49A, the self-cleavage was 0.0594.
Turning to C26G G67U, the self-cleavage was determined as 0.665.
As to C26G C33G, the self-cleavage was determined as 0.285.
For the variant U27C A42G, the self-cleavage was 0.
Turning to C26A G38U, the self-cleavage came to 0.208.
On to G25U G34C, for which the self-cleavage turned out to be 0.0396.
Then G25U G34A, with 0.0573.
With C26G G59U the figure was 0.831; with G25C C86G, 0.332; with C26A C49G, 0.867.
With C26U G38C the figure was 0.155; with C26U G38A, 0.0573; with C26U A45C, 0.776.
On to G25C A43G, for which the self-cleavage came to 0.
On to G25C A43U, for which the self-cleavage worked out at 0.147.
With U27A G54C the figure was 0.707.
As to C26U C64U, the self-cleavage came to 0.819.
In the case of U27G C61G, the self-cleavage was determined as 0.86.
With U27G C61A the figure was 0.759; with U27A G39U, 0.213.
In the case of C26G G35C, the self-cleavage was found to be 0.131.
With G25U A51U the figure was 0.237; with U27A C36G, 0.298; with C26U A77G, 0.872.
Consider C26U A77U, for which the self-cleavage came to 0.641.
With C26A G54C, the self-cleavage came to 1.
As to C26A G54A, the self-cleavage stood at 0.79.
On to U27A G81A, for which the self-cleavage stood at 0.914.
With U27A G50C the figure was 0.656; with U27A G50A, 0.967; with U27A U60G, 0.59.
Then G25U C26U, with 0.0415; and G25U C26G, with 0.816.
For C26G C48A, the self-cleavage amounted to 0.973.
Regarding C26A C41G, the self-cleavage stood at 0.883.
As for C26A C41U, the self-cleavage was 1.17.
Then G25C C33A, with 0; and G25C C33U, with 0.0773.
Take C26U U27C: the self-cleavage came to 1.29.
For C26U U27G, the self-cleavage is 0.923.
On to U27A A51G, for which the self-cleavage was found to be 0.997.
In the case of U27A C58G, the self-cleavage was 0.831.
U27C C75G: the self-cleavage turned out to be 0.
As to C26A U46C, the self-cleavage was determined as 0.745.
For C26G C36U, the self-cleavage stood at 0.529.
For C26G C36A, the self-cleavage stood at 0.151.
Regarding U27G, the self-cleavage amounted to 0.848.
Consider U27C, for which the self-cleavage is 0.8.
As to U27A, the self-cleavage was found to be 0.916.
In the case of U27A C44U, the self-cleavage turned out to be 0.482.
In the case of C26A U72G, the self-cleavage turned out to be 0.657.
As for U27C G40C, the self-cleavage was 0.415.
With U27C G40A the figure was 0.657; with C26A G53C, 0.759; with U27A C75A, 0.147.
Then G25C U47A, with 0.0639.
Take C26A A43C: the self-cleavage stood at 0.665.
With C26A A43G the figure was 0.731.
On to U27G C75G, for which the self-cleavage turned out to be 0.119.
As to U27A C84G, the self-cleavage worked out at 0.957.
For the variant C26U G34A, the self-cleavage came out at 0.36.
On to U27A G76C, for which the self-cleavage is 0.943.
U27C G31A: the self-cleavage was 0.251.
Take U27C G31U: the self-cleavage was 0.161.
With U27G C49U, the self-cleavage came out at 0.957.
For the variant U27A A77G, the self-cleavage worked out at 1.15.
Then C26G G34A, with 0.54; and U27A C41G, with 0.858.
Take C26A G34A: the self-cleavage was determined as 0.486.
Consider G25C C41G, for which the self-cleavage is 0.
For the variant U27C C86G, the self-cleavage worked out at 1.2.
On to C26A C75G, for which the self-cleavage turned out to be 0.
Then G25U U27A, with 0.135; and C26A G29U, with 0.032; and C26A G29A, with 0.13.
For the variant U27C U37C, the self-cleavage is 0.856.
As to U27C U37G, the self-cleavage came out at 0.0923.
With G25U G29U, the self-cleavage came to 0.12.
For the variant C26G G73U, the self-cleavage was determined as 0.291.
C26A G81A: the self-cleavage turned out to be 0.712.
For the variant C26A, the self-cleavage came to 1.01.
As for C26G, the self-cleavage turned out to be 0.952.
Then C26U, with 1.02.
Then C26U C75U, with 0.113.
Turning to C26U C75G, the self-cleavage was determined as 0.287.
Regarding G25U C64A, the self-cleavage stood at 0.151.
In the case of C26U G59A, the self-cleavage turned out to be 1.08.
As for C26A U65G, the self-cleavage amounted to 0.646.
For the variant G25C G53C, the self-cleavage came out at 0.356.
Then G25C G53U, with 0.193; and G25C G53A, with 0.
With U27G A51U the figure was 0.677; with G25C U69C, 0.175; with C26G G39U, 0.324.
C26G G39C: the self-cleavage was found to be 0.18.
